Test results published in patent publication WO2017179718A1 (dated 2017).

Target: T1, human CD64 (human, UniProt P12314 16-374)
T1 construct: also called hCD64; FcγRIA
Experiment: flow cytometry on CHO-S-hCD64 and THP-1 cells

T1 sequence (P12314 16-374 limits assumed): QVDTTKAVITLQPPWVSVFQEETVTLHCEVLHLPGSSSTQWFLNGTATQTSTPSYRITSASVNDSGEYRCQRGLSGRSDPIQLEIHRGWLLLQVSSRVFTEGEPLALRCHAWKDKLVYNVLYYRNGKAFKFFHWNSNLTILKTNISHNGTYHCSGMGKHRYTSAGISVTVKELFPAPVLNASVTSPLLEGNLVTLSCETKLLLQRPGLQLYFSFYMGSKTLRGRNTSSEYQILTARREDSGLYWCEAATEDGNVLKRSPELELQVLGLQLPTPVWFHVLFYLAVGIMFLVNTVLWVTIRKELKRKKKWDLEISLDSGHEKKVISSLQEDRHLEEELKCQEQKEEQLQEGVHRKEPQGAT

binding result: binds
B1: m22-AF647 antibody (antibody, human IgG4, V domains shown)
VH: QVQLVESGGGVVQPGRSLRLSCSSSGFIFSDNYMYWVRQAPGKGLEWVATISDGGSYTYYPDSVKGRFTISRDNSKNTLFLQMDSLRPEDTGVYFCARGYYRYEGAMDYWGQGTPVTVSS
VL: DIQLTQSPSSLSASVGDRVTITCKSSQSVLYSSNQKNYLAWYQQKPGKAPKLLIYWASTRESGVPSRFSGSGSGTDFTFTISSLQPEDIATYYCHQYLSSWTFGQGTKLEIK
modifications: Alexa Fluor 647 label on the antibody (sites not given)
notes: kappa) fluorescently labelled with Alexa Fluor 647
